From patent US10246503B2, “Method of improving the pharmacokinetic profile of a therapeutic polypeptide and the use thereof” (BEIJING ANXINHUAIDE BIOTECH. CO., LTD, priority 2012, dated 2019)
Where a chain is given by its changes, count along the chain named. In names and notes the source's numbering stands.

B1: GLP-1(A8G/G22E)-Fn8-p246-COL18NC1 (ligand)
chain: HGEGTFTSDVSSYLEEQAAKEFIAWLVKGRGSGGGSGGGSGGGSGGGSGSGGAVPPPTDLRFTNIGPDTMRVTWAPPPSIDLTNFLVRYSPVKNEEDVAELSISPSDNAVVLTNLLPGTEYVVSVSSVYEQHESTPLRGRQKTGGGGSGGGSGSGSESGSGGGSTSSGTGSETESPGSGSESGSGPSSAGSGSGSESGSGSGSSGPGSTGGSGSESGSGPGSSGTGGTATGSGSESGSGPGSSGPGSTGSGSGSESGSGSGSSGTGSTGGSGSESGSGPGSPRPGSTGTGSGSESGSGPGSSERGSAGGSGSESGSGTSESSASGSTGGSGSESGSGSESGSGSGSESGSGPESPGSGGSGSESGSGTSGSTGSGSESGSGGGSGGGSGGGASSGVRLWATRQAMLGQVHEVPEGWLIFVAEQEELYVRVQNGFRKVQLEARTPLPRG
B2: GLP-1(A8V/G22E)-Fn8-p246-COL18NC1 (ligand)
chain: B1 chain with G2V
B3: GLP-1(A8S/G22E)-Fn8-p246-COL18NC1 (ligand)
chain: B1 chain with G2S
B4: GLP-1(A8G/G22E/R36S)-Fn8-p246-COL18NC1 (ligand)
chain: B1 chain with R30S
B5: GLP-1(A8G/G22E/R36G)-Fn8-p246-COL18NC1 (ligand)
chain: B1 chain with R30G
B6: GLP-1(A8G/G22E/R36G)-TNCfn3-p246-COL18NC1 (ligand)
chain: HGEGTFTSDVSSYLEEQAAKEFIAWLVKGGGSGGGSGGGSGGGSGGGSGSGGRLDAPSQIEVKDVTDTTALITWFKPLAEIDGIELTYGIKDVPGDRTTIDLTEDENQYSIGNLKPDTEYEVSLISRRGDMSSNPAKETFTTGGGGSGGGSGSGSESGSGGGSTSSGTGSETESPGSGSESGSGPSSAGSGSGSESGSGSGSSGPGSTGGSGSESGSGPGSSGTGGTATGSGSESGSGPGSSGPGSTGSGSGSESGSGSGSSGTGSTGGSGSESGSGPGSPRPGSTGTGSGSESGSGPGSSERGSAGGSGSESGSGTSESSASGSTGGSGSESGSGSESGSGSGSESGSGPESPGSGGSGSESGSGTSGSTGSGSESGSGGGSGGGSGGGASSGVRLWATRQAMLGQVHEVPEGWLIFVAEQEELYVRVQNGFRKVQLEARTPLPRG
B7: GLP-1(A8G/G22E/R36G)-Fn8-p246-COL15NC1 (ligand)
chain: HGEGTFTSDVSSYLEEQAAKEFIAWLVKGGGSGGGSGGGSGGGSGGGSGSGGAVPPPTDLRFTNIGPDTMRVTWAPPPSIDLTNFLVRYSPVKNEEDVAELSISPSDNAVVLTNLLPGTEYVVSVSSVYEQHESTPLRGRQKTGGGGSGGGSGSGSESGSGGGSTSSGTGSETESPGSGSESGSGPSSAGSGSGSESGSGSGSSGPGSTGGSGSESGSGPGSSGTGGTATGSGSESGSGPGSSGPGSTGSGSGSESGSGSGSSGTGSTGGSGSESGSGPGSPRPGSTGTGSGSESGSGPGSSERGSAGGSGSESGSGTSESSASGSTGGSGSESGSGSESGSGSGSESGSGPESPGSGGSGSESGSGTSGSTGSGSESGSGGGSGGGSGGNLVTAFSNMDDMLQKAHLVIEGTFIYLRDSTEFFIRVRDGWKKLQLGELIPIPA
B8: GLP-1-Fn7-COL18NC1 (ligand)
chain: HAEGTFTSDVSSYLEGQAAKEFIAWLVKGRGGGGSGGGGTPLSPPTNLHLEANPDTGVLTVSWERSTTPDITGYRITTTPTNGQQGNSLEEVVHADQSSCTFDNLSPGLEYNVSVYTVKDDKESVPISDTIIPAGGGSGGGASSGVRLWATRQAMLGQVHEVPEGWLIFVAEQEELYVRVQNGFRKVQLEARTPLPRG
B9: GLP-1(A8G/G22E/R36G)-Fn8-p246-COL19NC2 (ligand)
chain: HGEGTFTSDVSSYLEEQAAKEFIAWLVKGGGSGGGSGGGSGGGSGGGSGSGGAVPPPTDLRFTNIGPDTMRVTWAPPPSIDLTNFLVRYSPVKNEEDVAELSISPSDNAVVLTNLLPGTEYVVSVSSVYEQHESTPLRGRQKTGGGGSGGGSGSGSESGSGGGSTSSGTGSETESPGSGSESGSGPSSAGSGSGSESGSGSGSSGPGSTGGSGSESGSGPGSSGTGGTATGSGSESGSGPGSSGPGSTGSGSGSESGSGSGSSGTGSTGGSGSESGSGPGSPRPGSTGTGSGSESGSGPGSSERGSAGGSGSESGSGTSESSASGSTGGSGSESGSGSESGSGSGSESGSGPESPGSGGSGSESGSGTSGSTGSGSESGSGGGSGGGSGGGIPADAVSFEEIKKYINQEVLRIFEERMAVFLSQLKLPAAMLAAQAYGRP
B10: GLP1(A8G/G22E/R36G)-Fn8-p246-ACRP30 (ligand)
chain: HGEGTFTSDVSSYLEEQAAKEFIAWLVKGGGSGGGSGGGSGGGSGGGSGSGGAVPPPTDLRFTNIGPDTMRVTWAPPPSIDLTNFLVRYSPVKNEEDVAELSISPSDNAVVLTNLLPGTEYVVSVSSVYEQHESTPLRGRQKTGGGGSGGGSGSGSESGSGGGSTSSGTGSETESPGSGSESGSGPSSAGSGSGSESGSGSGSSGPGSTGGSGSESGSGPGSSGTGGTATGSGSESGSGPGSSGPGSTGSGSGSESGSGSGSSGTGSTGGSGSESGSGPGSPRPGSTGTGSGSESGSGPGSSERGSAGGSGSESGSGTSESSASGSTGGSGSESGSGSESGSGSGSESGSGPESPGSGGSGSESGSGTSGSTGSGSESGSGGGSGGGSGGVYRSAFSVGLETRVTVPNVPIRFTKIFYNQQNHYDGSTGKFYCNIPGLYYFSYHITVYMKDVKVSLFKKDKAVLFTYDQYQEKNVDQASGSVLLHLEVGDQVWLQVYGDGDHNGLYADNVNDSTFTGFLLYHDTN
B11: GLP-1(A8G/G22E/R36G)-Fn8-p245-COL18NC1 (ligand)
chain: HGEGTFTSDVSSYLEEQAAKEFIAWLVKGGGSGGGSGGGSGGGSGGGSGSGGAVPPPTDLRFTNIGPDTMRVTWAPPPSIDLTNFLVRYSPVKNEEDVAELSISPSDNAVVLTNLLPGTEYVVSVSSVYEQHESTPLRGRQKTGGGGSGGGSGSGSTSESGGSTSSGTGSETESPGSGSESTSGPSSAGSGSTSESGSGSGSSGPGSTGGSTSGSESGPGSSGTGGTATGSESGSTSGPGSSGPGSTGSGSTSESGSGSGSSGTGSTGGSESGSTSGPGSPRPGSTGTGSTSGSESGPGSSERGSAGGSESTSGSGTSESSASGSTGGSTSGSESGSESGSGSTSESGSGPESPGSGGSGSTSESGTSGSTGSESTSGSGGGSGGGSGGGASSGVRLWATRQAMLGQVHEVPEGWLIFVAEQEELYVRVQNGFRKVQLEARTPLPRG
B12: GLP-1(A8G/G22E/R36G)-Fn8-p271-COL18NC1 (ligand)
chain: HGEGTFTSDVSSYLEEQAAKEFIAWLVKGGGSGGGSGGGSGGGSGGGSGSGGAVPPPTDLRFTNIGPDTMRVTWAPPPSIDLTNFLVRYSPVKNEEDVAELSISPSDNAVVLTNLLPGTEYVVSVSSVYEQHESTPLRGRQKTGGGGSGGGSGGSGSESGSGGGSTSSGTGSETESPGGSGSESGSGGPSSAGSGGSGSESGSGGSGSSGPGSTGGGSGSESGSGGPGSSGTGGTATGGSGSESGSGGPGSSGPGSTGSGGSGSESGSGGSGSSGTGSTGGGSGSESGSGGPGSPRPGSTGTGGSGSESGSGGPGSSERGSAGGGSGSESGSGGTSESSASGSTGGGSGSESGSGGSESGSGGSGSESGSGGPESPGSGGGSGSESGSGGTSGSTGGSGSESGSGGGGSGGGSGGGASSGVRLWATRQAMLGQVHEVPEGWLIFVAEQEELYVRVQNGFRKVQLEARTPLPRG
B13: GLP-1(A8G/G22E/R36G)-Fn8-p285-COL18NC1 (ligand)
chain: HGEGTFTSDVSSYLEEQAAKEFIAWLVKGGGSGGGSGGGSGGGSGGGSGSGGAVPPPTDLRFTNIGPDTMRVTWAPPPSIDLTNFLVRYSPVKNEEDVAELSISPSDNAVVLTNLLPGTEYVVSVSSVYEQHESTPLRGRQKTGGGGSGGGSGSGSESGSGGGSTSSGTGSETESPGSGSESGSGPSSAGSGSGSESGSGSGSSGPGSTGGSGSESGSGPGSSGTGGTATGSGSESGSGPGSSGPGSTGSGSGSESGSGSGSSGTGSTGGSGSESGSGPGSPRPGSTGTGSGSESGSGPGSSERGSAGGSGSESGSGTSESSASGSTGGSGSESGSGSESGSGSGSESGSGPESPGSGGSGSESGSGTSGSTGSGSESGSGPGSSGPGSTGSGSGSESGSGSGSSGTGSTGGSGSESGSGGGSGGGSGGGASSGVRLWATRQAMLGQVHEVPEGWLIFVAEQEELYVRVQNGFRKVQLEARTPLPRG
B14: GLP-1-Fn8-COL18NC1 (ligand)
chain: HAEGTFTSDVSSYLEGQAAKEFIAWLVKGRGGGGSGGGGSAVPPPTDLRFTNIGPDTMRVTWAPPPSIDLTNFLVRYSPVKNEEDVAELSISPSDNAVVLTNLLPGTEYVVSVSSVYEQHESTPLRGRQKTGGGGSGGGASSGVRLWATRQAMLGQVHEVPEGWLIFVAEQEELYVRVQNGFRKVQLEARTPLPRG
B15: GLP-1(A8G/G22E)-Fn8-COL18NC1 (ligand)
chain: B14 chain with A2G, G16E
B16: GLP-1(A8V/G22E)-Fn8-COL18NC1 (ligand)
chain: B14 chain with A2V, G16E
B17: GLP-1(A8S/G22E)-Fn8-COL18NC1 (ligand)
chain: B14 chain with A2S, G16E
B18: GLP-1(A8G/G22E/R36G)-Fn8-COL18NC1 (ligand)
chain: B14 chain with A2G, G16E, R30G

Biological target: human GLP-1 receptor (GLP-1R) (human, UniProt P43220 24-463)
Experiment: cell-based or functional assay

| Binder | EC50 (nM) measured by cAMP assay |
| --- | --- |
| B1 | 0.5 nM |
| B2 | 0.5 nM |
| B3 | 0.6 nM |
| B4 | 0.4 nM |
| B5 | 0.4 nM |
| B6 | 0.5 nM |
| B7 | 0.5 nM |
| B8 | 2.2 nM |
| B9 | 0.6 nM |
| B10 | 0.6 nM |
| B11 | 0.5 nM |
| B12 | 0.4 nM |
| B13 | 0.4 nM |
| B14 | 2.1 nM |
| B15 | 1.3 nM |
| B16 | 1.3 nM |
| B17 | 1.3 nM |
| B18 | 1.2 nM |
